Measured values from patent US20170327585A1 (PHARMABCINE, published 2017).

B1: PA430 human IgG (antibody, V domains shown)
VH: QMQLVESGGGVVQPGKSLRLSCAASGFTFSYHAMHWVRQAPGKGLEWLAAMSHDGTETSYADSVKGRITISRDNSKSALYLQMNSLRAEDTAVYYCTAEGLRSNGGAFETWGRGTMITVSS
VL: SYELTQPPSVSVAPGQTARITCSGDVLPKHYAYWYQQKPGQAPVLVIYKDSERPSGIPERFTGSSSGTKVTLTISGVRAEDEADYYCQSVDSSDTSVVFGGGTKLTVLG
notes: Converted from the phage antibody to whole human IgG with vectors pIgGHD-6A6Hvy and pIgGLD-6A6Lgt and expressed in HEK293T
B2: PD52 human IgG (antibody, V domains shown)
VH: QMQLVQSGGGVVQPGGSLRLSCVGSGFSFDDYAMHWVRQAPGKGLEWVSGISWNSGAIGYADSVKGRFTVSRDNSKNSLYLQMNSLRAEDTAVYYCATASRGLGDAFDIWGQGTMVTVSS
VL: SYELTQPPSVSVSPGQTARITCSGDVLPKHYAYWYQQKPGQAPVLVIYKDTERPSGIPERFSGSSSGTTVTLTISGVQAEDEADYYCQSVDNSDTSVVFGGGTKLTVLG
notes: Whole human IgG
B3: PD10 human IgG (antibody, V domains shown)
VH: QVQLVESGGGLVQPGGSLRLSCAASGFTFDEHAMHWVRQAPGKGLQWVSGINWNSGKTGYADSVKGRFTISRDNSKNSLYLQMNSLRAEDTAVYYCTRPGEDTGGGFDIWGQGTMITVSS
VL: NFMLTQPASVSGSPGQSITISCTGSSSDVGGYNYVSWYQQHPGKAPQLIIYDVTKRPSGVSNRFSGSKSGNSASLTISGLQAEDEADYYCSSYSSSTFYVFGTGTKVTVLG
notes: Whole human IgG
B4: PD27 human IgG (antibody, V domains shown)
VH: QVQLVESGGGLVQPGGSLRLSCAASGFTFDEHAMHWVRQAPGKGLQWVSGINWNSGKTGYADSVKGRFTISRDNSKNSLYLQMNSLRAEDTAVYYCTRPGEDTGGGFDIWGQGTMITVSS
VL: SYELTQPLSVSVSPGQTARITCSGDVLADHYSYWYQQKPGQAPVLVMYKDSERPSGIPERFSGSSSGTTVTLTISGVQAEDEADYYCQSVDSSDTSVVFGGGTKLTVLG
notes: Whole human IgG

Target: BSA (UniProt P02769 25-607)
Assay: ELISA, coated BSA, anti-human IgG HRP
Method: ELISAs were performed to identify antigen-specific binding capacity of clones converted to IgG EGFRvIII peptide, […] peptide and BSA were coated on […] 96 well plates at 37° C. for 2 hours. Thereafter, after blocking the uncoated portion with 3% skim milk/0.05% PBST, 1 μg/ml IgG was added to the plate and reacted at 37° C. for 1 hour. Anti-human IgG HRP (pierce, USA) was diluted in 1:3000 and reacted for 1 hour. Next, the TMB substrate (BD, USA) was treated for 10 minutes for color development, and the reaction was stopped by treating with 2N H2SO4. As to the color developed ELISA, the absorbance was measured at 450 nm-650 nm using a Sunrise ELISA reader (TECAN, Switzerland).

Chain of BSA (P02769 25-607 limits assumed): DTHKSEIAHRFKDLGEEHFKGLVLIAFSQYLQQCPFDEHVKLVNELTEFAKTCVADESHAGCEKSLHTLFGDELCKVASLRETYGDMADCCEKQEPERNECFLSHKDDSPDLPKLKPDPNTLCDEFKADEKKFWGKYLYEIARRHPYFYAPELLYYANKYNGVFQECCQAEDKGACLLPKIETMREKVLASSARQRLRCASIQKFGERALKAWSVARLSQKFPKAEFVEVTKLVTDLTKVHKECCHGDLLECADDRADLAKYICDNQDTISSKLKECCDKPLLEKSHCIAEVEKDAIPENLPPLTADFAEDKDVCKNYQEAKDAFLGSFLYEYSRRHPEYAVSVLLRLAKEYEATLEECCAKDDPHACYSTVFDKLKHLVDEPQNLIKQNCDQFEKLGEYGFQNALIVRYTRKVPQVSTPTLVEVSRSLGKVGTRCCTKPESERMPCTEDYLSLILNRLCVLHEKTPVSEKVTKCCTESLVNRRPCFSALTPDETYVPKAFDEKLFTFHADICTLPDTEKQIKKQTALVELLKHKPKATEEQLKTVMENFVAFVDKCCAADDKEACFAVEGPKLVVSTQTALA

Binder	binding result
B1	no binding (tested: 1 µg/ml IgG)
B2	no binding (tested: 1 µg/ml IgG)
B3	no binding (tested: 1 µg/ml IgG)
B4	no binding (tested: 1 µg/ml IgG)
